Laboratory results reported in a protein production outcome set (Wang et al. 2014).

Experiment: label from the status in PepcDB records

Sequence	protein production
MSEAYFRVESGALGPEENFLSLDDILMSHEKLPVRTETAMPRLGAFFLERSAGAETDNAVPQGSKLELPLWLAKGLFDNKRRILSVELPKIYQEGWRTVFSADPNVVDLHKMGPHFYGFGSQLLHFDSPENADISQSLLQTFIGRFRRIMDSSQNAYNEDTSALVARLDEMERGLFQTGQKGLNDFQCWEKGQASQITASNLVQNYKKRKFTDMED	failed
MGLSRVRAVFFDLDNTLIDTAGASRRGMLEVIKLLQSKYHYKEEAEIICDKVQVKLSKECFHPYSTCITDVRTSHWEEAIQETKGGADNRKLAEECYFLWKSTRLQHMILADDVKAMLTELRKEVRLLLLTNGDRQTQREKIEACACQSYFDAIVIGGEQKEEKPAPSIFYHCCDLLGVQPGDCVMVGDTLETDIQGGLNAGLKATVWINKSGRVPLTSSPMPHYMVSSVLELPALLQSIDCKVSMSV	not failed
MQLVVARIGRAHGIKGEVTVEVRTDEPELRLGPGAVLATDPASVGPLTIETGRVHSGRLLLRFEGVRDRNGAEALRNTLLIAEVDPDEVPEDPDEYYDHQLMDLDVVTKDGTEVGRITEISHLPSQDLFVVERSDGSEVYIPFVEEIVVEIDLEEQRAVIDPPPGLIDDRAEVDSSDTEAATEADALEHHHHHH	not failed
MKFKNILFDFDDTLVDFYDAEKKAFYNLAQKYNHQPTQQDFEHFKKVNQAHWEAFQQNKLTKDEVLSQRFINYFNDYQIHVNGKEADKCFRAELAMAPVKLFDHTLEVIQQLKLNHSLYIVTNGVTETQLRRIAQTQFNEIFQDVFISEKAGFQKPMTEFFDFVFEHIGENNRNQTLIVGDSLTSDILGGKNANISTCWFNIRQKENHTSIQPDYIINDLSEMIRIVE	failed
MGDFIGSVWWMIVSLGVLVTFHEFGHFWVARRCGVKVLRFSVGFGKPLWMRRDRHGTEFVVAAIPLGGYVKMLDEREGDVHPAEQDQAFNRKTVWQRIAIVAAGPIANLLLCMAMLWAMFVVGKQDYSATVGRADGLAAEAGLTPGERIVRIDGRSVSSWSDASMQLTTAAMDRRDVRVLTASDTASSSEHTLRLSQLPVGFDERRVAALAGIGWQFMLQPPVIAEVVKGSVADGLLKPGDRIVAIDGQPIRSAEDIIPQVQALGAHGGPGMIEVARGEDRLALEIAPRKSPQGQWMIGVRPAAAPAPEYDSRQQYGLFAAVPAAIRETGRMTADSLGMMKRMLTGQASVKNISGPVTIARAANASAERGLDWFLYFLGLLSLSLAIINLMPIPILDGGHLLYYLIELIKGSPISERAMIAGQYVGLAALAGLMGLAFYNDILGLVPR	failed
MEIMEFEEAFKEVYEMVKPKYKLFTAGPVACFPEVLEIMKVQMFSHRSKEYRKVHMDTVERLREFLEVEKGEVLLVPSSGTGIMEASIRNGVSKGGKVLVTIIGAFGKRYKEVVESNGRKAVVLEYEPGKAVKPEDLDDALRKNPDVEAVTITYNETSTGVLNPLPELAKVAKEHDKLVFVDAVSAMGGADIKFDKWGLDVVFSSSQKAFGVPPGLAIGAFSERFLEIAEKMPERGWYFDIPLYVKYLKEKESTPSTPPMPQVFGINVALRIIEKMGGKEKWLEMYEKRAKMVREGVREIGLDILAEPGHESPTITAVLTPPGIKGDEVYEAMRKRGFELAKGYGSVKEKTFRIGHMGYMKFEDIQEMLDNLREVINELKKQKGIN	not failed
MESLPVLGVFFMVKTANVAVMPLFPRSQYRIIGQIGQGQFGRVYCAIHRTTGKMYALKDLEHRVFPTNKFLRELSYLLTLRHPNIVACHGLEYHPGGRYLVMDYCEGGTLRDIIDGDGDLCLAGKIDLLRQILLGLAQAHQHDIVHCDLKPENILLIPRAEGWQVKVSDFGIARLTAKTGNPNFSKGYTGSPAYMAPERFYGKFSVASDIYAVGILLYELIVGDRPFSGFPKALQAAHLNVRLTLPPEFPPLLAPIVQRALEKLPQRRFPNATAMASDLATVQKQILEQDPPRGNGYLYHHLAPAPLAFTATVKHSTPLLFPISHLTGAGLWLYLGNGAELYLWEYGDGNVEHHPLPRWALGLPGTIANLEVNQDQISLLIQGGEPGEWQFYQWRETLLGALSLPKPRINLRAERLLANLSPGGKTLAVVVGDRDSEKGHFQLWRTDHSLPVAAAVVIRWPDQLLTLDQNHGLLVQSQSTASYCHTIFFLFNRRGSLFPAFRLSFLVFQLVVNRYSRNHLFGLADNAPYTGILIRLQPLKVNRIALTIQPQFIEPFPWGYLLADRHGEVALLDYEGFLFGNFSLGETITAIAPMGRYLCLFATWQGNGGTLRLLDLGPQVENIIRQRQEKR	failed
MEEVYHDEPEKFNHILHLIRDYFNHRDDRARITACMGELMRDHLNLLVRFFDFFPAEASEGLAQLQTIAATSVSPDSTIDDAVSYINTVKEAFHDEPAKYYEFFQLFYDIRYRLIDVAGGITRVEELLKAHKNLLVRLNAFLPPEAQRILHLKIEQRAASDINKRKRVASFIGKLKERFQGDDRHVYESFLEILTMYQEGNKSVNDLYQEVGFLVGTLWLDYTFS	failed
MSEPFTPGDLKTILHSKRANLYYLEHCRVLVNGGRVEYVTDAGKQSLYWNIPIANTTTLLLGTGTSVTQAAMRELAKAGVMVGFCGGGGTPLFSAGEVEMEVAWQSPQSEYRPTEYLQWWARFWFDDDKRLQAAKQLQQARLARIRAQWLDNRQLREAGFEIEPSRLTQLLDASLASLERAPDHTALLTEEARLSKQLFRLAAQATAYGEFTRAKRGGGVDPANRFLDHGNYLAYGLGATAAWVLGLPHSLAILHGKTRRGGLVFDAADLVKDAAILPQAFVSAMKGDDEQTFRQQCIEQLARGEALDFMIDQLQRIAEQLGRDG	failed
ADAQLIGHTNPSGEITFGEETFTIAQALDTLERDYREVYPLNVTTADVEALPDFATALPKADTDSEEANASAGDKAVHVLLPVFPGTNSEYDMAEAFEAAGATTEFHIIRNLNSEMLAADTEAFITKLQSANILAFSGGFSLGDEPDGSAKFMAAFLRSDTVAAAIKDFVARDGLVLGICNGFQALVKSGFLPYGDPAKMSAESPTLAHNRQLRHVSRIATTRVSSVASPWLSTFTPGQQHLMPVSHGEGRFVVSEKEAQALFSAGQVAFQYVDAEGTPTMEAPANPNGSNYAIEGIISPDGRILGKMGHPERFRDGLMRNIPGMEIQDIFANAVNYCRKSQR	failed
MELQLAIDLLNKEDAAELANKVKDYVDIVEIGTPIIYNEGLPAVKHMADNISNVKVLADMKIMDAADYEVSQAIKFGADVITILGVAEDASIKAAIEEAHKNNKQLLVDMIAVQDLEKRAKELDEMGADYIAVHTGYDLQAEGQSPLESLRTVKSVIKNSKVAVAGGIKPDTIKDIVAESPDLVIVGGGIANADDPVEAAKQCRAAIEGK	failed
MVILEQTHLVKNKAVDNKKSMKYSIFQQALTIAVILLISKIIESFMPIPMPASVIGLVLLFIALCTGIVKLGQVETVGTALTNNIGFLFVPAGISVINSLPILKQSPILIILLIIISTLLLLICTGFSSQLLVTKSLFPSKEKNEETSHIGG	failed
MTSITPVTLANCEDEPIHVPGAIQPHGALVTLRADGMVLAASENIQALLGFVASPGSYLTQEQVGPEVLRMLEEGLTGNGPWSNSVETRIGEHLFDVIGHSYKEVFYLEFEIRTADTLSITSFTLNAQRIIAQVQLHNDTASLLSNVTDELRRMTGYDRVMAYRFRHDDSGEVVAESRREDLESYLGQRYPASDIPAQARRLYIQNPIRLIADVAYTPMRVFPALNPETNESFDLSYSVLRSVSPIHCEYLTNMGVRASMSISIVVGGKLWGLFSCHHMSPKLIPYPVRMSFQIFSQVCSAIVERLEQGRIAELLRVSTERRLALARRARDADDLFGALAHPDDGIAALIPCDGALVMLGGRTLSIRGDFERQAGNVLQRLQRDPERDIYHTDNWPQPSEDSPDGGDCCGVLAIRFHRQESGWIFWFRHEEVHRIRWGGKPEKLLTIGPSGPRLTPRGSFEAWEEVVRGHSTPWSETDLAIAEKLRLDLMELCLNHAAEVDRMRQRLIAVLGHDLRNPLQSISMAAALLSSSDTRTTELRQHISASSSRMERLVSQILDMSRLQSGIGLTVNPVDTDVSQLVRQIVCETDVAYPGLVIEIAIDPQVRAVVDPDRYAQVAANLLSNARHHGLPGRPVLVTLTRQGDEVCLSVLNETSGLSEAQLANLFEPFKRESADNQRNRNGLGIGLYISQAIAQAHQGRIDVDCRDDVITFCLRLPVRQAETGSSS	failed
MSLDSPLYGRSFADDKMRELFSAQSFISRCVETEVALARAQARLGIIPEDAAAGITAAARTFAPEMERLRDDTEIVGYPILPLVEQLSAHAGEAGKYLHWGATTQDIMDTATVLQIRDGLALISRRIESVRKALAALARNHRDTPMAGRTHLQHALPVTFGYKAAVWLSAFDRHAARLEEISPRVLVVEFSGASGTLASLGTRGLDVQRELARELNLGVPSITWHSARDAVAETVQFLALVSGSLGKLAMDISIMMTTELGEVAEPFVRHRGASSTMPQKQNPVSCELILAGARIVRNHATSMLDAMIHDFERATGPWHLEWSAVPEGFAVASGILYQAEFMLGGLQVFPDRMRENLDHSRGLIVAEAVMMALAPHTGRKEAHDIVYLGCRRAVEDKTGLFEVLRTMPEVAKPLGEEALRDLTDPRNYLGSAGAMVDNVLGGREGHHHHHH	not failed
MNLEPLRKRVRQYLDQQQYQSALFWADKVASLSHEEPQDVYWLAQCLYLTAQYHRAAHALRSRKLDKLYEACRYLAARCHYAAKEHQQALDILDMEEPINRRLFEKYLKDDNGSRDPSSDWEMSQSSIKSSICLLRGKIYDALDNRTLATYSYKEALKLDVYCFEAFDLLTSHHMLTAQEEKELLDSLPLNKLCAEEQELLRFVFENKLKKYNKPSETVIPESVDGLQENLDVVVSLAERHYYNCDFKMCYKLTSTVMEKDPFHANCLPVHIGTLVELNKANELFYLSHKLVDLYPSNPVSWFAVGCYYLMVGHKNEHARRYLSKATTLEKTYGPAWIAYGHSFAVESEHDQAMAAYFTAAQLMKGCHLPMLYIGLEYGLTNNSKLAERFFGQALSIAPEDPFVIHEVGVVAFQNGEWKTAEKWFLDALEKIKAIGNEVTVDKWEPLLNNLGHVCRKLKKYAEALDYHRQALVLIPQNASTYSAIGYIHSLMGNFENAVDYFHTALGLRRDDTFSVTMLGHCIEMYIGDSEAYIGADIKDKLKCYDFDVHTMKTLKNIISPPWDFRDFEVEKQNTEEAGLAPLQNSTKAPESRPNLEETFEIEMNESDMMLETSMSDHST	failed
GRLRTDAVRAFCTTIVEATAPYACAFKPNFAFFEALGPAGLTVLDQVVTTIPDDCLVLGDAKRGDIGHSARHYAASIYEELGLDACTVSPYLGRDSVMPFLEHEGTCTFVLARTSNDGAADLQEACTCDGTPLYRHVARRVQAWNADAPGGAGLVVGATAPAALQDLRSLCPSLPFLVPGVGAQGGDAAAVMDAAATDEGPVLVNSSRSILYASEGPNYANAAADAARALRDALNG	failed
MQSDHKEKIAILVDVQNVYYTCREAYRSNFDYNQFWYVATQEKEVVSAKAYAIASNDPKQRQFHHILRGVGFEVMLKPYIQRRDGSAKGDWDVGITLDAIEIAPDVDRVILVSGDGDFSLLVERIQQRYNKKVTVYGVPRLTSQTLIDCADNFVAIDDDFLL	not failed
MRPTITALVLTYNGERLLDRCLGSLAFCDRILVVDSFSTDATVAIAQAAGAEVLQRKWEGPGPQFAFALEKISDGWIVSLDQDEICSEELRDSILAATAADSGEAGYWIPRRSWYFDRFLKHSGWYPDHLLRLFRAGRMRVEVSGAHYSFHPDGETGTLTGDILHYPYESFRQHLDKVNDYAQKGADDLRAKGKRGGLCAGLCHGAGRFIRIYIIKRGFLDGRAGFINAIHGAFYAFLKHLRIEEGDWGRPFEHKLEHHHHHH	not failed
MIYMPIVVAVDKKSDRAERVLRFAAEEARLRGVPVYVVHSLPGGGRTKDEDIIEAKETLSWAVSIIRKEGAEGEEHLLVRGKEPPDDIVDFADEVDAIAIVIGIRKRSPTGKLIFGSVARDVILKANKPVICIK	not failed
